The assay deals with mTFP1. In words: SDS-PAGE with in-gel fluorescence; whole-cell extract of C. reinhardtii transformants in SDS sample buffer without β-mercaptoethanol, 40°C for 5 min; 15% resolving gel; gel washed in water to refold the fluorescent proteins; imaged with bandpass filters.

mTFP1 showed a stoichiometry N of 2.

Usually stoichiometry N stands for a count of units in the complex or per binding partner.

For the origin of these results see publication PMC9540369.
